The text below walks through data of paper PMC11396700, “Synthesis and Biological Activity of Homohypotaurine Obtained by the Enzyme-Based Conversion of Homocysteine Sulfinic Acid Using Recombinant Escherichia Coli Glutamate Decarboxylase” (Molecules, 2024).

For data set [1], the target named is T1, EcGadB (Escherichia coli, UniProt P69910).
T1 construct: gene gadB; recombinant, purified full-length enzyme, prepared by earlier published protocol; PLP enzyme
T1 sequence (P69910 1-466): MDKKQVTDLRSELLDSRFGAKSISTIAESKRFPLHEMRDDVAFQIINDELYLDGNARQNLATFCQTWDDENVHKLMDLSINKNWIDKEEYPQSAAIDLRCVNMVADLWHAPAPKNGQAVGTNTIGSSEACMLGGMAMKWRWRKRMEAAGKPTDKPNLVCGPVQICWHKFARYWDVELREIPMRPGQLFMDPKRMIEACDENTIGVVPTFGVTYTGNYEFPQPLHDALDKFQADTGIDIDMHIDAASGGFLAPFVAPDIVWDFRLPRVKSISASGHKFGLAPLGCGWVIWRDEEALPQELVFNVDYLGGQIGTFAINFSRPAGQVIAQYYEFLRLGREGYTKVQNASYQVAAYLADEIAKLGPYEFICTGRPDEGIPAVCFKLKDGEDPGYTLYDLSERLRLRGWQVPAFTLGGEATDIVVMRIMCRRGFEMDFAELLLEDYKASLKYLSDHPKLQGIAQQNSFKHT
The data set can be described thus: decarboxylation; GABA quantified by end-point GABase assay (NADPH at […] nm), Michaelis-Menten fit. The data set is classed as biochemical. The conditions noted are these: pyridine/HCl 0.2 M (0.1 M in Figure 2 legend), pH 4.6, 37 °C, 1 mM PLP, 0.1 mM DTT; 0.15-10 mM substrate.

Substrate in data set [2]: N[C@@H](CCS(=O)O)C(=O)O
The experiment in a line: purified protein. The conditions noted are these: pyridine/HCl 0.2 M (0.1 M in Figure 2 legend), pH 4.6, 37 °C, 1 mM PLP, 0.1 mM DTT, 3-300 mM substrate. The class given is biochemical, Escherichia coli.

On to `N[C@@H](CCC(=O)O)C(=O)O` [L-Glu, L-Glutamic acid], for which, in data set [1], the Km – broadly, the substrate concentration at which the rate is half of its maximum – worked out at 840 ± 90 µM.

B1: EcGadB (Escherichia coli K-12) (protein)
chain: T1 sequence (P69910 1-466)
notes: recombinant, purified full-length enzyme, prepared by earlier published protocol; PLP enzyme
For B1, in data set [2], the Km was determined as 38240 ± 3450 µM; the kcat (in general, the maximal rate divided by the concentration of active sites) turned out to be 33.9 ± 1.07 s⁻¹; the specificity constant (kcat/Km) (usually the second-order rate constant that governs catalysis at low substrate concentration) was found to be 890 ± 90 M⁻¹ s⁻¹.
